Reference: PMC9408933, “Discovery of the Key Mutation Site Influencing the Thermostability of Thermomyces lanuginosus Lipase by Rosetta Design Programs” (International Journal of Molecular Sciences, 2022)

Substrate: CCCCCCCCCCCCCCCC(=O)Oc1ccc([N+](=O)[O-])cc1
Assay: p-nitrophenol release, Michaelis-Menten fit
Format: biochemical, Thermomyces lanuginosus
Conditions: 37 °C, pH 9.0, 100 mM Tris-HCl, pNPP 0.08-10.00 mM, apparent Km
Text: p-nitrophenol release, Michaelis-Menten fit on TLL (Thermomyces lanuginosus lipase)

B1: TLL (Thermomyces lanuginosus lipase) (Thermomyces lanuginosus) (protein)
chain: EVSQDLFNQFNLFAQYSAAAYCGKNNDAPAGTNITCTGNACPEVEKADATFLYSFEDSGVGDVTGFLALDNTNKLIVLSFRGSRSIENWIGNLNFDLKEINDICSGCRGHDGFTSSWRSVADTLRQKVEDAVREHPDYRVVFTGHSLGGALATVAGADLRGNGYDIDVFSYGAPRVGNRAFAEFLTVQTGGTLYRITHTNDIVPRLPPREFGYSHSSPEYWIKSGTLVPVTRNDIVKIEGIDATGGNNQPNIPDIPAHLWYFGLIGTCL
notes: N-terminal His-tag, secreted from Pichia pastoris GS115 (pPIC9K), Ni-NTA purified
With B1 the Km was 160 ± 30 µM, the Vmax was 297 µmol/min/mg and the kcat was 850 ± 11.8 s⁻¹. For the same protein, the kcat/Km was 5.31e+06 ± 74000 M⁻¹ s⁻¹.
